For three molecules, binding result and Kd results are on record in patent publication US20220175977A1 (SORICIMED BIOPHARMA, published 2022).

Assay [1] has as its target T1, TRPV6 (endogenous, in human cancer cell lines, tumour tissue and plasma) (human, UniProt Q9H1D0 1-765).
T1 construct: whole, on cells; also called Transient Receptor Potential Vanilloid 6; TRPV6 channel
T1 sequence (looked up): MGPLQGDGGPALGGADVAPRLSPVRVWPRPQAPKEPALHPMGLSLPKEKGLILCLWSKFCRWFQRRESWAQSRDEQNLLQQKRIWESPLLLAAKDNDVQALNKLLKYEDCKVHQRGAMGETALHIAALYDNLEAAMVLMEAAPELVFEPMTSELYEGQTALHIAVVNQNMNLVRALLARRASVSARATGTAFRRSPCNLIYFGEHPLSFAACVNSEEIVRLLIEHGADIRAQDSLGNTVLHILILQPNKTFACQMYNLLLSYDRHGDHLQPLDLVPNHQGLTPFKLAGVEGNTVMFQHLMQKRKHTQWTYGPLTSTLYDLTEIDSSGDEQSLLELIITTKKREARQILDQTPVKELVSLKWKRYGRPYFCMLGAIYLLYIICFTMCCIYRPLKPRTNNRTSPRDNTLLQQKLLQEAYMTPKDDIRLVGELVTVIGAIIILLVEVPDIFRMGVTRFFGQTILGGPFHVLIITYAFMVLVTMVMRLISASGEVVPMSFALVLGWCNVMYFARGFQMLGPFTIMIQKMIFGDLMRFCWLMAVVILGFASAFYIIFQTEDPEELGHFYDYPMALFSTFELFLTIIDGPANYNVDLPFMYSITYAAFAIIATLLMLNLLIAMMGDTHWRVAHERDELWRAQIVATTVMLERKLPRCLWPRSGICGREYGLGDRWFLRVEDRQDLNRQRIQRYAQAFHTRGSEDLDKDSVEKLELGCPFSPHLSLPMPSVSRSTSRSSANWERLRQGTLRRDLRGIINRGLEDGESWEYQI
Nature of the assay: fluorescence microscopy, SKOV-3 cells, not transfected (FIG. 9 A1-A3).

The target in assay [2] is T1, TRPV6 (endogenous, in human cancer cell …). Briefly: LNCaP model; method not described.

Where no end group is shown, it is not given here.

B1: SorC27-cy5.5 (peptide)
peptide: EGKLSSNDTEGGLC(Cy5.5)KEFLHPSKVDLPR
notes: also called SorC27-Cy5.5 compound; fluorescently labeled SorC27
As to B1, the binding result in assay [1] is listed as “binds”. The molecule KEFLHPSKVDLPR [SorC13] yielded an equilibrium dissociation constant (Kd) in assay [2] of 100 nM.

EGKLSSNDTEGGLCKEFLHPSKVDLPR [SorC27] registered a Kd in assay [2] of 140 nM.
